The supplement of paper PMC10567573

B1: STX11 (parent)
chain: FQRAMHDYNQAEMKQRDNCKIRIQ
B2: CDC14A (parent)
chain: LWVQGDIFRSKLKNRPSSEGSINK

Variants of: B1
Experiment: protein stability index of a GFP-peptide fusion (GPS, HEK-293T) (PSI 1-6); higher = more stable
Details: c terminus: a fixed tail appended
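Also: lentivirally expressed fusions sorted by FACS into six bins by GFP to DsRed ratio, PSI derived from sequencing read proportions per bin multiplied by bin number.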

Protein stability index: each site, then its substitutions
Q10: L 2.36 | T 2.39 | F 1.81 | V 2.67
M13: A 2.95 | P 3.11 | T 2.79 | R 2.1
I21: K 2.68 | Y 2.93 | R 3.56 | F 2.34 | G 3.08 | A 3.01
Q15: V 2.56 | L 2.32 | E 3.2 | P 2.85 | G 2.45
N18: A 2.53 | S 2.48 | W 2.17 | I 2.41 | T 3.21 | M 2.59
F1: A 3.87 | S 4.1 | I 3.46 | L 3.29 | E 4.17
D7: A 2.67 | Q 2.24 | Y 1.67 | E 3.09 | V 2.15 | P 2.23 | F 1.17 | T 2.23
A4: L 2.46 | G 2.19 | V 2.28 | C 2.21 | Q 3.56 | F 2.86 | T 2.69 | R 1.9
D17: S 1.78 | I 1.8 | W 1.68 | K 1.98 | C 2.09 | Q 2.63
Y8: D 3.4 | V 2.89 | S 3.45 | P 3.32 | I 3.08
K14: A 2.98 | S 2.48 | F 2.91 | Y 2.14 | L 2.44 | P 2.85 | Q 2.4
Q2: Y 2.95 | W 2.19 | R 3.02 | I 2.27 | G 3.82 | E 4 | H 1.81
R22: G 2.57 | K 2.42 | W 1.74 | E 2.67 | M 2.8 | C 2.37 | S 3.44
R16: A 3.04 | C 2.48 | F 2.28 | Q 3.29
N9: W 1.74 | I 2.25 | H 2.93 | D 2.84 | T 2.79
E12: H 2.14 | F 2.29 | W 2.39 | R 2.83 | Q 2.31 | A 2.32 | K 2.31 | N 2.29
H6: L 2.91 | W 2.43 | S 1.9 | N 3.3 | F 2.32 | T 3.06 | C 2.7
C19: Y 2.61 | A 2.98 | F 1.85 | L 2.54 | K 3.38 | T 3.04 | W 2.35 | Q 2.77 | N 3.7 | V 2.96
I23: K 2.93 | Q 3.52 | Y 2.98 | C 2.9
A11: S 2.75 | I 1.68 | C 2.29 | D 3.02 | W 2.49 | K 2.6 | P 3.19 | N 2.44 | H 2.58 | E 3.22 | G 3.09
R3: C 1.65 | F 2.07 | T 2.93 | Q 3.28 | H 2.97
Q24: G 2.75 | N 2.95 | P 2.83 | C 2.3 | W 1.6
K20: D 3.11 | M 2.46 | A 2.32 | L 3.26 | G 2.35 | W 1.6
M5: D 3.65 | P 2.64 | F 1.8 | Y 1.88 | E 3.77 | K 2.86 | S 2.63 | L 3.18 | N 3.1 | H 2.16 | G 2.9

Variants of: B2
Experiment: as above
Details: c terminus: a fixed tail appended

Protein stability index of substitutions, site by site:
L1: Q 2.79 | K 3.49 | A 3.37 | H 3.37 | P 3.75 | G 3.03 | I 2.17 | F 1.75 | N 4.3 | E 4.43 | C 3.69 | M 2.79 | D 4.57
